Data on two substances can be found in patent US20220145343A1 (priority 2019, published 2022).

Assay in all cases: purified protein, by the assay type
Data set [1] concerns CC(=O)N[C@H]1[C@H]([C@H](O)[C@H](O)CO)O[C@@](OCCCNC(=O)OCc2ccccc2)(C(=O)O)C[C@@H]1O[C@H]1O[C@H](CO[C@]2(C(=O)O)C[C@H](O)[C@@H](NC(C)=O)[C@H]([C@H](O)[C@H](O)CO)O2)[C@H](O)[C@H](O)[C@H]1O. Conditions: other: apparent, varying acceptor, 2 mM UDP-Gal, pH 6.5, 30° C.
Data set [2] relates to CC(=O)N[C@H]1[C@H]([C@H](O)[C@H](O)CO)O[C@@](OCCCNC(=O)OCc2ccccc2)(C(=O)O)C[C@@H]1O[C@H]1O[C@H](CO[C@]2(C(=O)O)C[C@H](O[C@H]3O[C@H](CO[C@]4(C(=O)O)C[C@H](O)[C@@H](NC(C)=O)[C@H]([C@H](O)[C@H](O)CO)O4)[C@H](O)[C@H](O)[C@H]3O)[C@@H](NC(C)=O)[C@H]([C@H](O)[C@H](O)CO)O2)[C@H](O)[C@H](O)[C@H]1O. As to conditions: other: apparent, varying acceptor, 2 mM UDP-Gal, pH 6.5, 30° C.
Data set [3] relates to CC(=O)N[C@H]1[C@H]([C@H](O)[C@H](O)CO)O[C@@](OCCCNC(=O)OCc2ccccc2)(C(=O)O)C[C@@H]1O. Conditions: other: apparent, varying acceptor, 2 mM UDP-Gal, pH 6.5, 30° C.
The test system of data set [4] is CC(=O)N[C@H]1[C@H]([C@H](O)[C@H](O)CO)O[C@@](OC[C@H]2O[C@H](O[C@H]3C[C@](OC[C@H]4O[C@H](O[C@H]5C[C@](OCCCNC(=O)OCc6ccccc6)(C(=O)O)O[C@@H]([C@H](O)[C@H](O)CO)[C@@H]5NC(C)=O)[C@H](O)[C@@H](O)[C@H]4O)(C(=O)O)O[C@@H]([C@H](O)[C@H](O)CO)[C@@H]3NC(C)=O)[C@H](O)[C@@H](O)[C@H]2O)(C(=O)O)C[C@@H]1O[C@H]1O[C@H](CO)[C@H](O)[C@H](O)[C@H]1O. As to conditions: other: apparent, varying acceptor, 10 mM CMP-Neu5Ac, pH 8.0, 30° C.

For data set [5], the system named is CC(=O)N[C@H]1[C@H]([C@H](O)[C@H](O)CO)O[C@@](OC[C@H]2O[C@H](O[C@H]3C[C@](OC[C@H]4O[C@H](O[C@H]5C[C@](OC[C@H]6O[C@H](O[C@H]7C[C@](OC[C@H]8O[C@H](O[C@H]9C[C@](OCCCNC(=O)OCc%10ccccc%10)(C(=O)O)O[C@@H]([C@H](O)[C@H](O)CO)[C@@H]9NC(C)=O)[C@H](O)[C@@H](O)[C@H]8O)(C(=O)O)O[C@@H]([C@H](O)[C@H](O)CO)[C@@H]7NC(C)=O)[C@H](O)[C@@H](O)[C@H]6O)(C(=O)O)O[C@@H]([C@H](O)[C@H](O)CO)[C@@H]5NC(C)=O)[C@H](O)[C@@H](O)[C@H]4O)(C(=O)O)O[C@@H]([C@H](O)[C@H](O)CO)[C@@H]3NC(C)=O)[C@H](O)[C@@H](O)[C@H]2O)(C(=O)O)C[C@@H]1O[C@H]1O[C@H](CO)[C@H](O)[C@H](O)[C@H]1O. As to conditions: other: apparent, varying acceptor, 10 mM CMP-Neu5Ac, pH 8.0, 30° C.

For data set [6], the system named is CC(=O)N[C@H]1[C@H]([C@H](O)[C@H](O)CO)O[C@@](OCCCNC(=O)OCc2ccccc2)(C(=O)O)C[C@@H]1O[C@H]1O[C@H](CO)[C@H](O)[C@H](O)[C@H]1O. Conditions: other: apparent, varying acceptor, 10 mM CMP-Neu5Ac, pH 8.0, 30° C.
For data set [7], the system named is CC(=O)N[C@H]1[C@H]([C@H](O)[C@H](O)CO)O[C@@](OC[C@H]2O[C@H](O[C@H]3C[C@](OC[C@H]4O[C@H](O[C@H]5C[C@](OC[C@H]6O[C@H](O[C@H]7C[C@](OCCCNC(=O)OCc8ccccc8)(C(=O)O)O[C@@H]([C@H](O)[C@H](O)CO)[C@@H]7NC(C)=O)[C@H](O)[C@@H](O)[C@H]6O)(C(=O)O)O[C@@H]([C@H](O)[C@H](O)CO)[C@@H]5NC(C)=O)[C@H](O)[C@@H](O)[C@H]4O)(C(=O)O)O[C@@H]([C@H](O)[C@H](O)CO)[C@@H]3NC(C)=O)[C@H](O)[C@@H](O)[C@H]2O)(C(=O)O)C[C@@H]1O[C@H]1O[C@H](CO)[C@H](O)[C@H](O)[C@H]1O. As to conditions: other: apparent, varying acceptor, 10 mM CMP-Neu5Ac, pH 8.0, 30° C.

For data set [8], the system named is CC(=O)N[C@H]1[C@H]([C@H](O)[C@H](O)CO)O[C@@](OC[C@H]2O[C@H](O[C@H]3C[C@](OCCCNC(=O)OCc4ccccc4)(C(=O)O)O[C@@H]([C@H](O)[C@H](O)CO)[C@@H]3NC(C)=O)[C@H](O)[C@@H](O)[C@H]2O)(C(=O)O)C[C@@H]1O[C@H]1O[C@H](CO)[C@H](O)[C@H](O)[C@H]1O. Conditions: other: apparent, varying acceptor, 10 mM CMP-Neu5Ac, pH 8.0, 30° C.

For the substance “NmSiaDW galactosyltransferase activity (Neisseria meningitidis)”, the Michaelis-Menten constant (Km) turned out to be 890 ± 100 µM in data set [1] and 100 ± 20 µM in data set [2]. Also, the kcat in data set [1] is 8.8 ± 0.4 s⁻¹; in data set [2] it was 5.3 ± 0.2 s⁻¹. Also, the catalytic efficiency (kcat/Km) in data set [1] stood at 10000 M⁻¹ s⁻¹; in data set [2] it was 51000 M⁻¹ s⁻¹; in data set [3], 47 M⁻¹ s⁻¹.

For “NmSiaDW sialyltransferase activity (Neisseria meningitidis)”, the kcat in data set [4] is 7.03 to 11.9 s⁻¹; in data set [5] it was 7.03 to 11.9 s⁻¹; in data set [6], 9.76 ± 0.55 s⁻¹; in data set [7], 7.03 to 11.9 s⁻¹; in data set [8], 23.1 ± 1.1 s⁻¹. Besides, the results for the Michaelis-Menten constant (Km) in data set [6] and in data set [8] were 180 ± 40 µM and 240 ± 40 µM, respectively. In addition, the specificity constant (kcat/Km) in data set [6] was 55000 M⁻¹ s⁻¹; in data set [8], 97000 M⁻¹ s⁻¹.

For orientation: Km means the concentration of substrate that gives half-maximal velocity. Usually kcat stands for the maximal rate divided by the concentration of active sites. By kcat/Km is commonly meant the second-order rate constant that governs catalysis at low substrate concentration.
